Laboratory results from publication PMC5875850, “Insights into DNA substrate selection by APOBEC3G from structural, biochemical, and functional studies”.

Columns and labels:
[1] = biological target: Pot1-A3GCTD fusion (Pot1A3GCTD) (Schizosaccharomyces pombe (Pot1) / Homo …, UniProt O13988 1-185+Q9HC16:195-384, L234K;C243A;F310K;C321A;C356A;internal_change); assay: size exclusion chromatography; Kinetic Kd: 20 mM Tris pH 8.0, 1 mM DTT, 37 C, 1-50 uM enzyme, 40 nM DNA; SEC/complex: 50 mM Tris pH 7.0, 100 mM NaCl, 0.1 mM TCEP (stated for the Pot1-A3GCTD gel filtration); crystals 20 C, 100 mM HEPES pH 7, 200 mM LiCl, 20% PEG 6000; conditions: protein: recombinant; tags: His6-Staph nuclease tag removed by SARS-CoV Mpro; single strand
[2] = biological target: A3GCTD WT (A3G191-384-2K3A) (Homo sapiens, UniProt Q9HC16 191-384, L234K;C243A;F310K;C321A;C356A); assay: single-turnover deamination kinetics (kobs vs [E], hyperbolic fit); Kinetic Kd: 20 mM Tris pH 8.0, 1 mM DTT, 37 C, 1-50 uM enzyme, 40 nM DNA; SEC/complex: 50 mM Tris pH 7.0, 100 mM NaCl, 0.1 mM TCEP (stated for the Pot1-A3GCTD gel filtration); crystals 20 C, 100 mM HEPES pH 7, 200 mM LiCl, 20% PEG 6000; conditions: protein: recombinant; tags: His6-MBP tag removed by SARS-CoV Mpro; label: 5' 32P; single strand
A3GCTD WT (A3G191-384-2K3A), sequence (Q9HC16 191-384 L234K/C243A/F310K/C321A/C356A, one chain of several): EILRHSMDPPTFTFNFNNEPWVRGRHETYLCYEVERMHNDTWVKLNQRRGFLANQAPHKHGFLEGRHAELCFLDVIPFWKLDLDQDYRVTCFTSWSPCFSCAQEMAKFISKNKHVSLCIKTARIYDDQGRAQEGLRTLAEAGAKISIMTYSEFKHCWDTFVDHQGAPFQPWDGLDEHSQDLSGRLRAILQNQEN

Pot1-A3GCTD fusion (Pot1A3GCTD), sequence (O13988 other isoform, or with tags, fused parts or gaps L234K;C243A;F310K;C321A;C356A;): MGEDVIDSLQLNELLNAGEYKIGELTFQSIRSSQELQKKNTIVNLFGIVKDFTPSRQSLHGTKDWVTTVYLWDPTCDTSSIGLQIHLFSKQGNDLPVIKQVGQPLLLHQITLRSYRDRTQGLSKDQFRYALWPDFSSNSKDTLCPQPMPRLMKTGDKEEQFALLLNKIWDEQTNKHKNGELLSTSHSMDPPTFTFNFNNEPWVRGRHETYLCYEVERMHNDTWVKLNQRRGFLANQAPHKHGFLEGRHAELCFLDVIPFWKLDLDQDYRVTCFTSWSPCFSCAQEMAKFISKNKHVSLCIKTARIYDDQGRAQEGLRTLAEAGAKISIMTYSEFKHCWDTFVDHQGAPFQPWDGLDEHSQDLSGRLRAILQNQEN

| Binder | binding result [1] | Kd [2] |
| --- | --- | --- |
| AGAAGACCCAAAGAAGAGGAAGCAGGTTAC (ssDNA) [30nt Pot1/A3G substrate (CCCA + GGTTAC)] | binds |  |
| TAGAAAGGGAGACCCAAAGAGGAAAGGTGA (ssDNA) [CCCA 30-mer] |  | 26 µM |
